{
  "source": "paper PMC12167710",
  "about": "(2024)",
  "binders": {"B1": {"name": "anti-human λ VHH (HuFab lambda 1) (VHH)", "VHH": "QVQLQDSGGGLVQPGGSLRLSCAASGFTLDYYAIGWFRQAPGKEREGVSCISSSDGSSDGYTYYADSVKGRFTISRDNAKNTVYLQMNNLKPEDTAVYYCAARLFGVATTDPSYFDSWGQGTQVTVSS"}, "B2": {"name": "anti-mouse κ VHH (TP1170) (VHH)", "VHH": "QVQLVESGGGWVQPGGSLRLSCAASGFTFSDTAMMWVRQAPGKGREWVAAIDTGGGYTYYADSVKGRFTISRDNAKNTLYLQMNSLKPEDTARYYCAKTYSGNYYSNYTVANYGTTGRGTLVTVSS"}},
  "key": {"[1]": {"target": "recombinant human IgG1λ isotype control antibody (clone AbD00264_hIgG1) (human, UniProt P01857 = IgG part)", "test": "BLI"}, "[2]": {"target": "recombinant mouse IgG1κ isotype control antibody (clone P3.6.2.8.1) (mouse, UniProt P01868 = IgG part)", "test": "BLI"}},
  "data": [
    {"binder": "B1", "values": [
      {"measurement": "koff", "setting": "[1]", "result": 0.000246, "unit": "s⁻¹"}
    ]},
    {"binder": "B2", "values": [
      {"measurement": "koff", "setting": "[2]", "result": "1.18e-05", "unit": "s⁻¹"}
    ]}
  ]
}
